Data taken from paper PMC11331095, “Structural basis for DNA recognition by a viral genome-packaging machine”.
Substitutions are numbered along the chain they refer to. One block for each molecule: values may come before it.

Key:
[1] = molecular target: HK97 small terminase (Escherichia coli bacteriophage HK97); test: cryo-EM structure; small terminase with 31 bp DNA (cos 7-37), 1:2 protein:DNA, 25 mM Tris-HCl pH 7.5, 200 mM NaCl, 10 mM MgCl2; complex purified on S200 10/30; 3.0 Å
[2] = molecular target: HK97 small terminase Arg5 to alanine mutant (Escherichia coli bacteriophage HK97); test: SEC; mutant proteins on a Superdex S200 10/30 column in 25 mM Tris-HCl, pH 7.5, 1 M NaCl (SI Appendix, Fig. S12)
[3] = molecular target: HK97 small terminase Arg7 to alanine mutant (Escherichia coli bacteriophage HK97); test: as above
[4] = molecular target: HK97 small terminase Arg107 to alanine mutant (Escherichia coli bacteriophage HK97); test: as above
[5] = molecular target: HK97 small terminase Arg114 to alanine mutant (Escherichia coli bacteriophage HK97); test: as above
[6] = molecular target: HK97 small terminase Arg128 to alanine mutant (Escherichia coli bacteriophage HK97); test: as above
[7] = molecular target: HK97 small terminase Lys4 to alanine mutant (Escherichia coli bacteriophage HK97); test: as above
[8] = molecular target: HK97 small terminase Lys100 to alanine mutant (Escherichia coli bacteriophage HK97); test: as above
[9] = molecular target: HK97 small terminase triple mutant (Lys4, Arg5 and Arg7 to alanine) (Escherichia coli bacteriophage HK97); test: as above
[10] = molecular target: T1, small terminase WT (Escherichia coli bacteriophage HK97, UniProt Q9MBW4 1-161); test: MST; conditions: rough upper limit of Kapp; mixed specific and nonspecific binding; 10 mM MgCl2; EMSA: 25 mM Tris-HCl pH 7.5, 200 mM NaCl, 10 mM MgCl2, RT 2-3 h, gel at 4 C (DNA 2 uM boundary mapping, 0.5 uM DNA mutants, 20 nM Alexa647 or 40 nM Cy5 DNA) …
T1 sequence: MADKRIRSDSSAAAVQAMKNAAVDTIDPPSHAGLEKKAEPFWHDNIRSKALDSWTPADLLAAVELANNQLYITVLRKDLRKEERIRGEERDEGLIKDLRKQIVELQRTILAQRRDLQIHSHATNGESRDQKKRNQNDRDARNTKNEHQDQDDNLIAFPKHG

[11] = molecular target: T1, small terminase WT; test: EMSA; EMSA: 25 mM Tris-HCl pH 7.5, 200 mM NaCl, 10 mM MgCl2, RT 2-3 h, gel at 4 C (DNA 2 uM boundary mapping, 0.5 uM DNA mutants, 20 nM Alexa647 or 40 nM Cy5 DNA); MST: same buffer + 0.005-0.01% Tween 20, 12 nM DNA, 20 C; conditions: protein: recombinant; tags: His-SUMO tag removed; chain copies: 9
[12] = molecular target: T1, small terminase WT; test: cryoEM; 3.0 A; 28 of 31 bp modelled; DNA threaded through channel; EMSA: 25 mM Tris-HCl pH 7.5, 200 mM NaCl, 10 mM MgCl2, RT 2-3 h, gel at 4 C (DNA 2 uM boundary mapping, 0.5 uM DNA mutants, 20 nM Alexa647 or 40 nM Cy5 DNA); MST: same buffer + 0.005-0.01% Tween 20, 12 nM DNA, 20 C; conditions: protein: recombinant; tags: His-SUMO tag removed; chain copies: 9
[13] = molecular target: T1, small terminase WT; test: EMSA; up to 1 uM protein; EMSA: 25 mM Tris-HCl pH 7.5, 200 mM NaCl, 10 mM MgCl2, RT 2-3 h, gel at 4 C (DNA 2 uM boundary mapping, 0.5 uM DNA mutants, 20 nM Alexa647 or 40 nM Cy5 DNA); MST: same buffer + 0.005-0.01% Tween 20, 12 nM DNA, 20 C; conditions: protein: recombinant; tags: His-SUMO tag removed; chain copies: 9
[14] = molecular target: T1, small terminase WT; test: EMSA; binding abolished; up to 1 uM protein; EMSA: 25 mM Tris-HCl pH 7.5, 200 mM NaCl, 10 mM MgCl2, RT 2-3 h, gel at 4 C (DNA 2 uM boundary mapping, 0.5 uM DNA mutants, 20 nM Alexa647 or 40 nM Cy5 DNA); MST: same buffer + 0.005-0.01% Tween 20, 12 nM DNA, 20 C; conditions: protein: recombinant; tags: His-SUMO tag removed; chain copies: 9
[15] = molecular target: T1, small terminase WT; test: EMSA; little influence on binding; EMSA: 25 mM Tris-HCl pH 7.5, 200 mM NaCl, 10 mM MgCl2, RT 2-3 h, gel at 4 C (DNA 2 uM boundary mapping, 0.5 uM DNA mutants, 20 nM Alexa647 or 40 nM Cy5 DNA); MST: same buffer + 0.005-0.01% Tween 20, 12 nM DNA, 20 C; conditions: protein: recombinant; tags: His-SUMO tag removed; chain copies: 9

- stoichiometry N [1]: 9
Molecule: HK97 small terminase

- stoichiometry N [2]: 9
Molecule: HK97 small terminase Arg5 to alanine mutant (natural protein)

- stoichiometry N [3]: 9
Molecule: HK97 small terminase Arg7 to alanine mutant (natural protein)

- stoichiometry N [4]: 9
Molecule: HK97 small terminase Arg107 to alanine mutant (natural protein)

- stoichiometry N [5]: 9
Molecule: HK97 small terminase Arg114 to alanine mutant (natural protein)

- stoichiometry N [6]: 9
Molecule: HK97 small terminase Arg128 to alanine mutant (natural protein)

- stoichiometry N [7]: 9
Molecule: HK97 small terminase Lys4 to alanine mutant (natural protein)

- stoichiometry N [8]: 9
Molecule: HK97 small terminase Lys100 to alanine mutant (natural protein)

- stoichiometry N [9]: 9
Molecule: HK97 small terminase triple mutant (Lys4, Arg5 and Arg7 to alanine) (natural protein)

Molecule: cos -20-80 (100 bp)
- Kd [10]: < 100 nM

B1: 25 bp cos oligo (dsDNA)
DNA 1: TAACGCTAACCCGATTTTTTTAGTT
DNA 2: AACTAAAAAAATCGGGTTAGCGTTA
- binding result [11]: binds

B2: 21 bp cos oligo (dsDNA)
DNA 1: ACGCTAACCCGATTTTTTTAG
DNA 2: CTAAAAAAATCGGGTTAGCGT
- binding result [11]: binds

B3: cos 7-37 (31 bp) (dsDNA)
DNA 1: ATTTAACGCTAACCCGATTTTTTTAGTTTTA
DNA 2: TAAAACTAAAAAAATCGGGTTAGCGTTAAAT
- binding result [12]: binds

B4: position 21 C:G to T:A (dsDNA)
DNA 1: B3 DNA 1 with C15T
DNA 2: B3 DNA 2 with G17A
- binding result [13]: no binding

B5: positions 26-27 G:C (dsDNA)
DNA 1: B3 DNA 1 with T20C, T21C
DNA 2: B3 DNA 2 with A11G, A12G
- binding result [14]: no binding

B6: positions 24-29 A:T swapped (dsDNA)
DNA 1: ATTTAACGCTAACCCGAAAAAAATAGTTTTA
DNA 2: TAAAACTATTTTTTTCGGGTTAGCGTTAAAT
- binding result [15]: binds
